Columns and labels:
HEK293T cells = experiment: Glucose transport by GLUE/SWEET coexpressed with FRET glucose sensor (cytosolic or ER) in HEK293T cells; format: cell-based, human; settings: for glucose accumulation in cytosol (negative FRET ratio change): cytosolic FRET glucose sensor
Procedure: Individual cells were analyzed by quantitative ratio imaging of CFP and Venus emission (acquisition intervals 5 sec; Fc/D corresponds to the normalized emission intensity ratio). HEK293T/FLIPglu600μΔ13V cells were perfused with medium, followed by square pulses of increasing glucose concentrations. […] Cells coexpressing the sensor and SWEET1 accumulated glucose as evidenced by the negative FRET ratio change with an amplitude that correlates with the increasing external glucose supply (blue line). Data points are mean±SD (n>10).
The sensor FLIPglu600μΔ13V^ER was targeted to the lumen of the ER (analysis performed as under FIG. 9A, acquisition intervals 10 sec). […] Cells coexpressing the sensor and SWEET1 accumulated glucose in the ER as evidenced by the negative ratio change induced by perfusion with glucose. Data points are mean±SD (n>10).
By utilizing the above described HEK293T cell system, a novel class of Arabidopsis sugar transporters was identified that are involved in nectar production in plants and with all hallmarks of the glucose transport activity described in root tips. A screening assay was then initiated in which candidate transporter genes from Arabidopsis were coexpressed with the FRET glucose sensor in the HEK293T cell expression system.
FRET analysis. Cell culture, transfection, image acquisition and FRET analysis were performed as described previously.
To identify novel glucose transporters from the reference plant Arabidopsis, genes encoding uncharacterized polytopic membrane proteins from the plant membrane protein database Aramemnon, available on the internet at “aramemnon.botanik.uni-koeln.de”,—were screened using a mammalian expression system. Candidate genes were coexpressed with a high-sensitivity FRET glucose sensor (i.e. FLIPglu600μΔ13V) in human embryonic kidney HEK293T cells, which are characterized by low endogenous glucose uptake activity. […] To determine whether SWEET1 can also mediate efflux from the cytosol, we expressed the FRET glucose sensor FLIPglu600μΔ13V^ER in the lumen of the endoplasmic reticulum (ER; FIG. 9B). Topologically, uptake across the plasma membrane (PM) is initiated from the extracellular side of the carrier, while ‘export’ to the ER is initiated from the cytoplasmic side of the transporter (FIG. 9C). […] SWEET1 may thus function as a glucose uniporter, for which the direction of transport depends only on the glucose gradient across the membrane. […] Furthermore, the mRNAs levels of known human glucose transporters in the GLUT and SGLT families were not induced in HEK293T cells expressing SWEET1 (FIG. 12B). […] In support of a role in cellular uptake and efflux, a constitutively expressed SWEET1-YFP fusion localizes to the PM in Arabidopsis leaves (FIG. 9G). […] Other proteins, possibly related to SWEET1, may be involved in sugar transport in roots.

yeast strain YSL2-1 = experiment: Complementation growth assay of yeast strain YSL2-1/EBY4000 lacking all 18 hexose transporter genes; format: cell-based; settings: for complementation of yeast hexose transport mutant on glucose: 2% glucose; for complementation on mannose: 2% mannose; for sensitivity to 2-deoxyglucose: various 2-Deoxy-glucose levels; for complementation on fructose: 2% fructose
Procedure: Cells expressing yeast homolog, HXTS, or mammalian homolog, GLUT1, were used as controls. Os8N3 and RAG1AP1 were homologs from rice and mammalian. The yeast cells were grown in SD-Ura liquid medium with 2% maltose to early log phase and 5 m of serious dilutions were spotted on the media containing YPM or SD-URA containing 2% of maltose, fructose, or mannose. […]
(§1) Cells expressing yeast homolog, HXT5, or mammalian homolog, GLUT1, were used as controls. Os8N3 and RAG1AP1 were homologs from rice and mammalian. The yeast cells were grown in SD-Ura liquid medium with 2% maltose to early log phase and 5 m of serious dilutions were spotted on the media containing YPM or SD-URA containing 2% glucose.
as §1, with “various 2-Deoxy-glucose levels.” for “2% glucose.”
A modified version of the yeast strain EBY4000 (hxt1 through −17Δ::loxP gal2Δ::loxP stl1Δ::loxP agt1Δ::loxP ydl247wΔ::loxP yjr160cΔ::loxP) carrying a cytosolic invertase (YSL2-1) was transformed with SWEETs and HXTS and grown on SD (synthetic deficient) medium supplemented with 2% maltose and required auxotrophic markers. For complementation growth assays, cells were grown overnight in liquid minimum medium to OD600˜0.6 and then diluted to OD600˜0.2 using water. Serial dilutions (1×, 5×, 25×, and 125×) were plated on SD media containing either 2% maltose (as control) or 2% glucose and the relevant auxotrophic markers. Growth was documented by scanning (CanoScan, Canon) the plates after 2-5 days at 30° C.

GLUE12: Arabidopsis GLUE/SWEET sugar transporter protein
glucose accumulation in cytosol (negative FRET ratio change) (HEK293T cells): function as glucose transporters with different activities

B1: GLUE8: Arabidopsis sugar transporter protein expressed in the tapetum, paralog of SWEET1 (protein, UniProt Q8LFH5 1-239, looked up)
Bidirectional sugar …: MVDAKQVRFIIGVIGNVISFGLFAAPAKTFWRIFKKKSVEEFSYVPYVATVMNCMLWVFYGLPVVHKDSILVSTINGVGLVIELFYVGVYLMYCGHKKNHRRNILGFLALEVILVVAIILITLFALKGDFVKQTFVGVICDVFNIAMYGAPSLAIIKVVKTKSVEYMPFLLSLVCFVNAGIWTTYSLIFKIDYYVLASNGIGTFLALSQLIVYFMYYKSTPKEKTVKPSEVEISATERV
complementation of yeast hexose transport mutant on glucose (yeast strain YSL2-1): transport glucose
complementation of yeast hexose transport mutant on glucose (yeast strain YSL2-1; listed as SWEET8/RPG1): complements the yeast glucose transport mutant
complementation on mannose (yeast strain YSL2-1): transport mannose
sensitivity to 2-deoxyglucose (yeast strain YSL2-1): transport 2-deoxyglucose
glucose efflux from cytosol into the ER (HEK293T cells; ER-targeted sensor FLIPglu600μΔ13V ER): ‘efflux’ glucose from the cytosol into the ER
glucose accumulation in cytosol (negative FRET ratio change) (HEK293T cells): function as glucose transporters with different activities
glucose accumulation in cytosol (negative FRET ratio change) (HEK293T cells; listed as SWEET8): also functions as a uniporter

B2: GLUE13: Arabidopsis GLUE/SWEET sugar transporter protein (protein, UniProt Q9FGQ2 1-294, looked up)
Bidirectional sugar …: MALTNNLWAFVFGILGNIISFVVFLAPVPTFVRICKKKSTEGFQSLPYVSALFSAMLWIYYAMQKDGTAFLLITINAFGCVIETIYIVLFVSYANKKTRISTLKVLGLLNFLGFAAIVLVCELLTKGSTREKVLGGICVGFSVSVFAAPLSIMRVVVRTRSVEFMPFSLSLFLTISAVTWLFYGLAIKDFYVALPNVLGAFLGAVQMILYIIFKYYKTPVAQKTDKSKDVSDHSIDIAKLTTVIPGAVLDSAVHQPPALHNVPETKIQLTEVKSQNMTDPKDQINKDVQKQSQV
glucose accumulation in cytosol (negative FRET ratio change) (HEK293T cells): function as glucose transporters with different activities

B3: GLUE4: Arabidopsis GLUE/SWEET sugar transporter protein (protein, UniProt Q944M5 1-251, looked up)
Bidirectional sugar …: MVNATVARNIAGICGNVISLFLFLSPIPTFITIYKKKKVEEYKADPYLATVLNCALWVFYGLPMVQPDSLLVITINGTGLAIELVYLAIFFFFSPTSRKVKVGLWLIGEMVFVGIVATCTLLLFHTHNQRSSFVGIFCVIFVSLMYIAPLTIMSKVIKTKSVKYMPFSLSLANFLNGVVWVIYALIKFDLFILIGNGLGTVSGAVQLILYACYYKTTPKDDEDEEDEENLSKVNSQLQLSGNSGQAKRVSA
complementation on fructose (yeast strain YSL2-1): transport fructose
complementation of yeast hexose transport mutant on glucose (yeast strain YSL2-1): transport glucose
complementation on mannose (yeast strain YSL2-1): transport fructose and mannose
sensitivity to 2-deoxyglucose (yeast strain YSL2-1): transport 2-deoxyglucose

B4: GLUE7: Arabidopsis GLUE/SWEET sugar transporter protein (protein, UniProt Q8LBF7 1-258, looked up)
Bidirectional sugar …: MVFAHLNLLRKIVGIIGNFIALCLFLSPTPTFVRIVKKKSVEEYSPIPYLATLINCLVWVLYGLPTVHPDSTLVITINGTGILIEIVFLTIFFVYCGRQKQRLIISAVIAAETAFIAILAVLVLTLQHTTEKRTMSVGIVCCVFNVMMYASPLSVMKMVIKTKSVEFMPFWLSVAGFLNAGVWTIYALMPFDPFMAIPNGIGCLFGLAQLILYGAYYKSTKRIMAERENQPGYVGLSSAIARTGSEKTANTNQEPNNV
complementation on fructose (yeast strain YSL2-1): transport fructose
complementation of yeast hexose transport mutant on glucose (yeast strain YSL2-1): transport glucose
complementation on mannose (yeast strain YSL2-1): transport fructose and mannose
sensitivity to 2-deoxyglucose (yeast strain YSL2-1): transport 2-deoxyglucose

B5: GLUE5: Arabidopsis GLUE/SWEET sugar transporter protein (protein, UniProt Q9FM10 1-240, looked up)
Bidirectional sugar …: MTDPHTARTIVGIVGNVISFGLFCAPIPTMVKIWKMKSVSEFKPDPYVATVLNCMMWTFYGLPFVQPDSLLVITINGTGLFMELVYVTIFFVFATSPVRRKITIAMVIEVIFMAVVIFCTMYFLHTTKQRSMLIGILCIVFNVIMYAAPLTVMKLVIKTKSVKYMPFFLSLANFMNGVVWVIYACLKFDPYILIPNGLGSLSGIIQLIIYITYYKTTNWNDDDEDKEKRYSNAGIELGQA
complementation of yeast hexose transport mutant on glucose (yeast strain YSL2-1): transport glucose
complementation on mannose (yeast strain YSL2-1): transport mannose
sensitivity to 2-deoxyglucose (yeast strain YSL2-1): transport 2-deoxyglucose

B6: GLUE3: Arabidopsis GLUE/SWEET sugar transporter protein (protein, UniProt Q6NQN5 1-263, looked up)
Bidirectional sugar …: MGDKLRLSIGILGNGASLLLYTAPIVTFSRVFKKKSTEEFSCFPYVMTLFNCLIYTWYGLPIVSHLWENLPLVTINGVGILLESIFIFIYFYYASPKEKIKVGVTFVPVIVGFGLTTAISALVFDDHRHRKSFVGSVGLVASISMYGSPLVVMKKVIETRSVEYMPFYLSFFSFLASSLWLAYGLLSHDLFLASPNMVATPLGILQLILYFKYKNKKDLAPTTMVITKRNDHDDKNKATLEFVVDVDRNSDTNEKNSNNASSI
sensitivity to 2-deoxyglucose (yeast strain YSL2-1): transport 2-deoxyglucose

B7: GLUE14: Arabidopsis GLUE/SWEET sugar transporter protein (protein, UniProt Q9SW25 1-281, looked up)
Bidirectional sugar …: MVLTHNVLAVTFGVLGNIISFIVFLAPVPTFVRICKKKSIEGFESLPYVSALFSAMLWIYYALQKDGAGFLLITINAVGCFIETIYIILFITYANKKARISTLKVLGLLNFLGFAAIILVCELLTKGSNREKVLGGICVGFSVCVFAAPLSIMRVVIRTKSVEFMPFSLSLFLTISAITWLFYGLAIKDFYVALPNILGAFLGAVQMILYVIFKYYKTPLVVDETEKPKTVSDHSINMVKLSSTPASGDLTVQPQTNPDVSHPIKTHGGDLEDQMDKKMPN
sensitivity to 2-deoxyglucose (yeast strain YSL2-1): transport 2-deoxyglucose

B8: GLUE16: Arabidopsis GLUE/SWEET sugar transporter protein (protein, UniProt Q9LUR4 1-230, looked up)
Bidirectional sugar …: MADLSFYVGVIGNVISVLVFLSPVETFWRIVQRRSTEEYECFPYICTLMSSSLWTYYGIVTPGEYLVSTVNGFGALAESIYVLIFLFFVPKSRFLKTVVVVLALNVCFPVIAIAGTRTLFGDANSRSSSMGFICATLNIIMYGSPLSAIKTVVTTRSVQFMPFWLSFFLFLNGAIWGVYALLLHDMFLLVPNGMGFFLGIMQLLIYAYYRNAEPIVEDEEGLIPNQPLLA
sensitivity to 2-deoxyglucose (yeast strain YSL2-1): transport 2-deoxyglucose

B9: GLUE17: Arabidopsis GLUE/SWEET sugar transporter protein (protein, UniProt Q84WN3 1-241, looked up)
Bidirectional sugar …: MAEASFYIGVIGNVISVLVFLSPVETFWKIVKRRSTEEYKSLPYICTLLGSSLWTYYGIVTPGEYLVSTVNGFGALVETIYVSLFLFYAPRHLKLKTVDVDAMLNVFFPIAAIVATRSAFEDEKMRSQSIGFISAGLNIIMYGSPLSAMKTVVTTKSVKYMPFWLSFFLFLNGAIWAVYALLQHDVFLLVPNGVGFVFGTMQLILYGIYRNAKPVGLSNGLSEIAQDEEEGLTSRVEPLLS
sensitivity to 2-deoxyglucose (yeast strain YSL2-1): transport 2-deoxyglucose
